{"source": "paper PMC10192527", "about": "“A metal ion-dependent mechanism of RAD51 nucleoprotein filament disassembly”", "binders": {"B1": {"name": "x60 ssDNA 60mer (ssDNA)", "DNA": "ATGGTGTGTGTAGGTTAATGTGAGGAGGAGAGGTGAAGAAGGAGGAGAGAAGAAGGAGGC"}, "B2": {"name": "R51-14:R51-15 (post-synaptic filament DNA) (dsDNA)", "DNA 1": "TGGAGGTGCATCGAGCTCGCGACAAACCTTCTATGTTGAGCGTCAGTCGG", "DNA 2": "CCGACTGACGCTCAACATAGGTACCACACGGCGAGCTCGATGCACCTCCA"}}, "key": {"[1]": {"biological_target": "T1, RAD51 (Homo sapiens, UniProt Q06609 1-339)", "T1 sequence (Q06609 whole entry)": "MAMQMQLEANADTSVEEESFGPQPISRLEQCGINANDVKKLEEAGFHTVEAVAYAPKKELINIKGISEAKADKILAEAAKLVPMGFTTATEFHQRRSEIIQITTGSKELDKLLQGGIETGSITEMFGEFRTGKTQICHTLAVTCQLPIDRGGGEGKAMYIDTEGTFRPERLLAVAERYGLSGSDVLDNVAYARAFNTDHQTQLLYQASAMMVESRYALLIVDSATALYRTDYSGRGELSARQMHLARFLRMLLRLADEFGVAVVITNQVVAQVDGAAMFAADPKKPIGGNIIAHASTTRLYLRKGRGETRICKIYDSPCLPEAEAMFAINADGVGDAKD", "assay": "cryo-EM structure (3.8 A); Ca2+, ATP (pre-synaptic filament; two Ca2+ per ATP site); EMSA: 25 mM HEPES pH 7.5, 150 mM NaCl, 2 mM DTT, 5 mM CaCl2, 2 mM ATP or 0.5-10 mM ADP, 25 C 15 min; 0.5% agarose in 0.5x TB at 4 C", "conditions": "protein: recombinant; tags: none stated on the final protein; co-expressed with His6-MBP-BRCA2 BRC4 (pMBP4-RAD51); chain copies: 10; single strand"}, "[2]": {"biological_target": "T1, RAD51", "assay": "cryo-EM structure; ATP, Ca2+ (post-synaptic filament; second metal ion present); EMSA: 25 mM HEPES pH 7.5, 150 mM NaCl, 2 mM DTT, 5 mM CaCl2, 2 mM ATP or 0.5-10 mM ADP, 25 C 15 min; 0.5% agarose in 0.5x TB at 4 C", "conditions": "protein: recombinant; tags: none stated on the final protein; co-expressed with His6-MBP-BRCA2 BRC4 (pMBP4-RAD51); chain copies: 16; blunt ends, internal 10-nt mismatched bubble"}}}
{"binder": "B1", "values": [{"measurement": "binding result", "setting": "[1]", "value": "binds"}]}
{"binder": "B2", "values": [{"measurement": "binding result", "setting": "[2]", "value": "binds"}]}
